The experiment addresses T1, HIV-1 Nef-SF2, untagged (HIV-1 (SF2), UniProt P03407).
T1 construct: also called Nef (B-clade allele SF2); source: E. coli, purified without N-terminal His tag (anion exchange HiPrep Q FF, gel filtration Superdex 75)
The experiment is described as follows: SPR. The note with it: both partners purified.

The term Kd denotes a measure of binding affinity in units of concentration. The low end stands for higher affinity, the high end for lower affinity. A word on the koff: it is the first-order rate constant of dissociation. Read a high koff as a short-lived complex. What is called kon is a measure of how fast the partners come together. Lower therefore signals slow association.

T1 sequence (P03407 whole entry): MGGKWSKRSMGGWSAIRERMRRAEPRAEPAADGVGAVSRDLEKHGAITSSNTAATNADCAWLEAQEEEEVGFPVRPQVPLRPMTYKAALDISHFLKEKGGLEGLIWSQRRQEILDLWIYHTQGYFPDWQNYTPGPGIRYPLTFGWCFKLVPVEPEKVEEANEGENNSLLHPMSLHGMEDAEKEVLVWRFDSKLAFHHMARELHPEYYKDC

B1: wild-type human Hck SH3 domain (domain or fragment)
chain: not shown
notes: also called hHck SH3; source: E. coli BL21(DE3)pLysS, purified (anion exchange, IMAC, size-exclusion chromatography)
The molecule B1 came in with a dissociation constant Kd of 70 ± 10 nM, a koff of 0.0118 ± 0.04 s⁻¹ and a kon of 160000 ± 0.06 M⁻¹ s⁻¹.

B2: wild-type mouse Hck SH3 domain (domain or fragment, UniProt P08103 76-136, looked up)
chain: SEDTIVVALYDYEAIHREDLSFQKGDQMVVLEEAGEWWKARSLATKKEGYIPSNYVARVNS
notes: also called mHck SH3; mSH3; source: E. coli BL21(DE3)pLysS, purified (anion exchange, IMAC, size-exclusion chromatography)
For B2, the equilibrium dissociation constant (Kd) is 130 ± 30 nM, the koff is 0.07 ± 0.36 s⁻¹ and the on-rate (kon) was determined as 554000 ± 1.77 M⁻¹ s⁻¹.

The values above are taken from publication PMC3328272, “HIV-1 Nef interaction influences the ATP-binding site of the Src-family kinase, Hck” (BMC Chemical Biology, 2012).
